From the supplement of paper PMC10126150
± gives the standard deviation of the averaged measurements.

System: ATP
Assay: switch fluorescence ratio, 500 uM ATP over buffer (Cy3 cluster intensity, sum of 5 cycles each) (fold (ratio)); higher = stronger signal-on switching upon ATP binding; sequences stand for … in TCGTCGGCAGCGTCAGATGTGTATAAGAGACAGTTTTTTTTTTTTTTTTTTTTTTTTT…TC
Conditions: aptamer strand: ATP DNA aptamer (quencher-CACCTGGGGGAGTATTGCGGAGGAAGG + anchor), 100 nM annealed; ATP concentration: 500 uM
How it was run: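 Between each of five buffer/ATP cycles, the flow-cell was stripped with NaOH and re-annealed. Each cycle imaged Cy3-labelled switching-strand clusters, annealed to 100 nM quencher-labelled ATP aptamer on a modified Illumina MiSeq flow-cell, first in selection buffer and then after 15 min with 500 uM ATP at 22 °C. The fluorescence ratio is summed target-cycle over summed buffer-cycle Cy3 intensity per cluster, averaged per switch-domain sequence, with clusters outside 100-1000 RFU excluded.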
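Also: ATP exposure 15 min at 22 °C before imaging.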

Row | Sequence | switch fluorescence ratio
1 | GGGGGGGCGC | 1.02 ± 0.035
2 | ATAGTAGGGG | 0.994 ± 0.045
3 | TAGATGGGAT | 0.976 ± 0.014
4 | GTAGATTGG | 0.9872 ± 0.0035
5 | ATCTTTCGCG | 1.02 ± 0.015
6 | GACGAATCCA | 1.03 ± 0.046
7 | CGGGGTTTGT | 1.01 ± 0.011
8 | CTTACGTTAT | 1.13 ± 0.036
9 | CTATAAAAGT | 0.9983 ± 0.0076
10 | TGAGGGTTTA | 0.991 ± 0.017
11 | AGGTCTATTG | 1.06 ± 0.09
12 | GTTTTTGGAA | 1.05 ± 0.013
13 | TAGGTTGCAA | 0.9665 ± 0.007
14 | GGGTTTAATA | 0.996 ± 0.034
15 | GGTGGATTTG | 0.981 ± 0.062
16 | TGTTTTCAGT | 0.975 ± 0.02
17 | CATGATGTTC | 1.02 ± 0.021
18 | GACTGGGGTT | 0.9891 ± 0.0059
19 | AATGTGCTGT | 0.983 ± 0.058
20 | ATAGTGAGTA | 0.996 ± 0.018
21 | GTTCGAAAGG | 1.022 ± 0.0095
22 | CCCGCGGTTA | 1.23 ± 0.032
23 | ATTGTTTCTA | 1 ± 0.014

Row | Sequence | switch fluorescence ratio
24 | TGGGCTGTTT | 1.012 ± 0.01
25 | ATAAGGGGAG | 0.999 ± 0.027
26 | TGTAACTTCG | 1.001 ± 0.0082
27 | TCGCGGTCGG | 0.997 ± 0.015
28 | CTAACCAGCC | 1.6 ± 0.13
29 | TAAAGGTATC | 0.9977 ± 0.0048
30 | TAAGGCTGAC | 1.15 ± 0.023
31 | TTTGCTTTCC | 1.2 ± 0.17
32 | CTGATAAGCG | 0.991 ± 0.039
33 | TTCAAATTTT | 1.01 ± 0.015
34 | CGTTAGAATC | 1.014 ± 0.0082
35 | CGGGCGCGTG | 0.978 ± 0.053
36 | ACATGAATGG | 0.969 ± 0.016
37 | GAGAAGAGGC | 1.13 ± 0.023
38 | TGCATGGGAG | 1.001 ± 0.0039
39 | GATAGTGTTG | 0.992 ± 0.041
40 | TATACTTAGT | 1.025 ± 0.0036
41 | GCGAAAACAG | 1 ± 0.088
42 | TTTGATCCTG | 0.9711 ± 0.0081
43 | TTACCGACGG | 1.1 ± 0.069
44 | TTTCAGAGTT | 0.993 ± 0.033
45 | TAATAAGGGG | 1.02 ± 0.028
46 | AATGCATCTG | 0.973 ± 0.013

Row | Sequence | switch fluorescence ratio
47 | AATTTTCTGC | 1.01 ± 0.053
48 | TTTTCCGCCC | 3.08 ± 2.9
49 | GGGGCGTGAG | 0.998 ± 0.034
50 | CTTTCATTTT | 0.972 ± 0.036
51 | AATGACGGTA | 1.0565 ± 0.00075
52 | TCTTTCATAT | 0.9392 ± 0.0062
53 | AATTTAGTTT | 0.978 ± 0.026
54 | AATGTGCGGG | 0.963 ± 0.042
55 | GCAGGAAGGC | 1.089 ± 0.0071
56 | GGCTAAGGTC | 1 ± 0.044
57 | ACGTATTTTG | 1.08 ± 0.045
58 | TTTATTCGGT | 1.01 ± 0.074
59 | GAACGGAGGC | 0.978 ± 0.016
60 | GAGGTCAGTG | 0.974 ± 0.019
61 | TTGCGGGATG | 1.04 ± 0.051
62 | CATACTCAGA | 1 ± 0.045
63 | TAAACGGGAT | 0.999 ± 0.019
64 | AGGGATACCG | 1.01 ± 0.066
65 | TAGGAATGTT | 0.9659 ± 0.0022
66 | GAGAGCTCAC | 1.01 ± 0.021
67 | GGGATTGTTT | 0.965 ± 0.021
68 | AAGGGGTTGC | 1.03 ± 0.022
69 | ATTCAAGTCA | 1.03 ± 0.025

Row | Sequence | switch fluorescence ratio
70 | TTGAGCATGG | 1.06 ± 0.051
71 | TAGGGTAGTT | 1.02 ± 0.071
72 | AGTGGAGACG | 1.03 ± 0.012
73 | CTGCAGCGTC | 1.29 ± 0.053
74 | GAGGGGGTCC | 1.03 ± 0.069
75 | AAGTGGAGGG | 0.985 ± 0.021
76 | ACACGGCGGC | 1.07 ± 0.033
77 | TTGATATGAG | 0.989 ± 0.048
78 | CATAAGTGGG | 0.973 ± 0.03
79 | GATGGATAGT | 0.992 ± 0.02
80 | AATCAGTGTA | 1 ± 0.051
81 | GGTGCGATGC | 1.7 ± 0.081
82 | CGTAGATAGC | 1.07 ± 0.02
83 | TCGAGCAGGG | 1.07 ± 0.055
84 | GGAATGGGGA | 1 ± 0.037
85 | TTAGAAATTT | 1.01 ± 0.02
86 | TTAAAATGTC | 0.992 ± 0.014
87 | GTTACAGTGG | 1 ± 0.061
88 | GTGTCATAGC | 0.975 ± 0.012
89 | TGTGCAGCG | 1.02 ± 0.022
90 | GCCTGAGCTG | 1.024 ± 0.0094
91 | CCAGGGGAAG | 0.996 ± 0.017
92 | TGCCGGTGGT | 1.01 ± 0.035

Row | Sequence | switch fluorescence ratio
93 | TTGGGGTATC | 1.01 ± 0.02
94 | GGAGGAAGGC | 1.75 ± 0.58
95 | GGTTTGGTTT | 1 ± 0.021
96 | ATTAGTAGTT | 0.996 ± 0.057
97 | CTAGGCAGTT | 1.01 ± 0.012
98 | GTTTCCAGTT | 1.03 ± 0.023
99 | GGCTGAGCCT | 0.991 ± 0.038
100 | TAATTTCTTG | 1.013 ± 0.0018
101 | GGGATGGGAA | 1.02 ± 0.022
102 | CAGGCTCTTT | 0.978 ± 0.036
103 | AGCAGCGCGG | 1.04 ± 0.042
104 | CCTGGGGATT | 1.07 ± 0.18
105 | TATAACTTGA | 1.02 ± 0.0048
106 | AATGGGTAC | 1.015 ± 0.0059
107 | CGTGTAAGGG | 0.974 ± 0.04
108 | TTAGATGAAT | 1 ± 0.033
109 | TGTTAATCTG | 0.994 ± 0.021
110 | GTGAGGGGCG | 0.964 ± 0.035
111 | AAGGGTAACA | 0.991 ± 0.019
112 | AGCGAGGGGG | 1.03 ± 0.032
113 | TATTAAGCAG | 1.07 ± 0.038
114 | CCGTTTTAGT | 1.02 ± 0.039
115 | ACGTGTAGGA | 1.0005 ± 0.00069

Row | Sequence | switch fluorescence ratio
116 | ATTTTTTTT | 0.996 ± 0.024
117 | ACGGAGCGGG | 1.35 ± 0.25
118 | AGAAGTGGAG | 1.004 ± 0.01
119 | ATTCTTCGC | 1.06 ± 0.011
120 | AATTGGCGTA | 1.01 ± 0.034
121 | TCGATTTTTT | 1.01 ± 0.028
122 | TCGGGAGTCA | 1.011 ± 0.0091
123 | TTGCCTAATG | 0.972 ± 0.035
124 | TGGCGCGTAC | 1.81 ± 0.095
125 | ACTATTACGG | 1.18 ± 0.0094
126 | GGCTGAAGGG | 0.996 ± 0.014
127 | GGGTGATGGC | 1.01 ± 0.013
128 | CTTTCTATGT | 0.986 ± 0.029
129 | CTTCTTAAGA | 0.984 ± 0.046
130 | TATTTTTGCC | 1.001 ± 0.0031
131 | GGAACATATA | 1.01 ± 0.0064
132 | TTTGAGGTGC | 1.06 ± 0.031
133 | CACAATTGGG | 1.01 ± 0.035
134 | CGGGTCGGGG | 0.998 ± 0.025
135 | TAATATTTTA | 0.987 ± 0.014
136 | GTGTATAGCA | 1.03 ± 0.014
137 | GTGTTGTCGG | 1.01 ± 0.026
138 | CACATTGACC | 1.1119 ± 7.1e-05

Row | Sequence | switch fluorescence ratio
139 | GTTTGTCTGC | 0.963 ± 0.025
140 | AGGGGTGTTT | 0.999 ± 0.039
141 | TAAGTAATTC | 1.08 ± 0.064
142 | GGAAAAGGCT | 1.02 ± 0.07
143 | CGTAGAAAAG | 0.998 ± 0.025
144 | TGAGATTCTG | 1.05 ± 0.043
145 | ACCGTCTCAG | 1.05 ± 0.026
146 | AGTCATAAAA | 1.01 ± 0.045
147 | TTTGCGATTT | 1.15 ± 0.14
148 | TTAAGGGTTG | 1.02 ± 0.019
149 | GTCGGGGTCA | 0.99653 ± 0.0006
150 | AGTGTTGGGG | 0.998 ± 0.017
151 | TAATAAGTA | 0.97 ± 0.012
152 | TATCAGAGGT | 1.03 ± 0.036
153 | ATTTCAACGT | 0.9879 ± 0.0034
154 | AGCGTCAGCC | 0.99 ± 0.05
155 | CGGCACGTTA | 1.06 ± 0.025
156 | ACAGGCAGGA | 1.01 ± 0.022
157 | ACGTAGTTTG | 1.04 ± 0.033
